For one test, the target named is T1, IL-2Rβ (Homo sapiens, UniProt P14784).
T1 sequence (P14784 27-551): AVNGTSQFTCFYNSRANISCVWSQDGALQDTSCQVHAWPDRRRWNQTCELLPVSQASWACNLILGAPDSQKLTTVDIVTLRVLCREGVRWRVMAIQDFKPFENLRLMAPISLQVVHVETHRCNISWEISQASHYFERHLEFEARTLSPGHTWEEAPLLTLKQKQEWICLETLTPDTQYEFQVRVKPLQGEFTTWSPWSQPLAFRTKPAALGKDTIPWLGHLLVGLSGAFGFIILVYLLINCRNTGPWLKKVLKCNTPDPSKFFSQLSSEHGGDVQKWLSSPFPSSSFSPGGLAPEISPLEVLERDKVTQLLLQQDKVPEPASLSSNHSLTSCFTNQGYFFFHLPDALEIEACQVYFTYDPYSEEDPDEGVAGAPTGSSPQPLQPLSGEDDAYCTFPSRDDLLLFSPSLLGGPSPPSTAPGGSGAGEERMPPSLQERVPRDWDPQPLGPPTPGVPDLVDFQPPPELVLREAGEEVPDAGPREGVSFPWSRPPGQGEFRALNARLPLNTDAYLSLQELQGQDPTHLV
Briefly: competition with IL-2 binding to IL-2Rβ.

A further test concerns the target T2, hu-IL-2Rβ subunit (Homo sapiens, UniProt P14784).
T2 sequence (P14784 27-551): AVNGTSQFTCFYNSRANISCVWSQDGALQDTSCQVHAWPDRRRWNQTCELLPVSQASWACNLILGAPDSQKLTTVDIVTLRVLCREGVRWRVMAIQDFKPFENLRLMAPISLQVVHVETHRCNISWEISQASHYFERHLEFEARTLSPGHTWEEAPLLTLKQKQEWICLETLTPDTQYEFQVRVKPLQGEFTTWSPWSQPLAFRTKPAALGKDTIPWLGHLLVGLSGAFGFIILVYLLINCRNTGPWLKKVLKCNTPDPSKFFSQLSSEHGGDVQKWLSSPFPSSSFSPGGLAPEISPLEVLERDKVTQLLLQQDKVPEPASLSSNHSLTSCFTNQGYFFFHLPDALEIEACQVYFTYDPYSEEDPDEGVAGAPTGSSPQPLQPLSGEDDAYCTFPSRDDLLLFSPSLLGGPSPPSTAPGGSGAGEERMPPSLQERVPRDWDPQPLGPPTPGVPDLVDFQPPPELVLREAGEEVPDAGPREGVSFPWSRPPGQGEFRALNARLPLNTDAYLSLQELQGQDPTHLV
As to the kind of experiment: competitive binding at the specific binding site on the hu-IL-2Rβ subunit. An excerpt:
This specific binding site on the hu-IL-2Rβ subunit to which the group of IL-2Rβ ligands bind can be characterized using competitive binding assays as described.

The target of test [1] is T3, hu-IL-2Rγc subunit (Homo sapiens, UniProt P31785).
T3 sequence (P31785 23-369): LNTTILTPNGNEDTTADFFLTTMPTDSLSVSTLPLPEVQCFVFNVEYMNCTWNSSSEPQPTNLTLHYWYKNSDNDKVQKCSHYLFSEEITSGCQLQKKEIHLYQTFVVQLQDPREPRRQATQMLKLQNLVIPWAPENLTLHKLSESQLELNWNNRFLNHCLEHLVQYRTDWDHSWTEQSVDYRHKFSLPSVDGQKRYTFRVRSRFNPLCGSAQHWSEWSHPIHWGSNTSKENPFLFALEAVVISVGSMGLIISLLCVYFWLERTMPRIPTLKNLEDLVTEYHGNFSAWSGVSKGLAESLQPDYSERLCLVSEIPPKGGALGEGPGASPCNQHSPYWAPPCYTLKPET
Briefly: competitive binding at the specific binding site on the hu-IL-2Rγc subunit.

Test [2] addresses T4, hu-IL-2Rγc subunit (human, UniProt P31785 23-262, limits assumed).
T4 construct: also called human interleukin-2 receptor subunit γ; CD132
T4 sequence (looked up): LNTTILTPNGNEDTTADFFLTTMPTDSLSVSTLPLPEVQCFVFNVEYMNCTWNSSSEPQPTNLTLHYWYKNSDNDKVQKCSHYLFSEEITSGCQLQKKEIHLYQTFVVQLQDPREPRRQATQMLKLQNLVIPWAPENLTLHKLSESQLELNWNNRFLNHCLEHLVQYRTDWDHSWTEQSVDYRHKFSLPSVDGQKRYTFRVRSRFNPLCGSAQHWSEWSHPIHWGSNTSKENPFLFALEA
As to the kind of experiment: phage ELISA competition assay. (In general: An ELISA detects its analyte on a solid surface through an enzyme-linked reagent.)

Test [3] deals with T4, hu-IL-2Rγc subunit.
The target in test [4] is T5, hu-IL-2Rγc subunit (human), P31785.
T5 chain: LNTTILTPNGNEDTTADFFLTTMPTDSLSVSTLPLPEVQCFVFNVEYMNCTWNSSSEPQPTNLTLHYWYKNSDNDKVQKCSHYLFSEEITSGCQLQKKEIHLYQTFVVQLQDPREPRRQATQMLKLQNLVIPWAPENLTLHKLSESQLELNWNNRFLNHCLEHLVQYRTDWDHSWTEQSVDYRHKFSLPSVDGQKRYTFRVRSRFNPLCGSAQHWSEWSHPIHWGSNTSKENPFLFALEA

For test [5] the target is unchanged.

Where two headings read alike, the source gives them in different places. No end group written: not given here.

On to “D C S M W E G V E L C W (DCSMWEGVELCW) [SEQ ID NO: 935]”, for which, in the test with IL-2Rβ, the “competition with IL-2 binding to IL-2Rβ” value is on record as “do not bind competitively”. In addition, the “competition with the group of IL-2Rβ ligands for the specific binding site on the IL-2Rβ subunit” value in the test with hu-IL-2Rβ subunit was “does not compete”.

As for “Y D C R I A Q V G E L C D L (YDCRIAQVGELCDL) [SEQ ID NO: 932]”, the “competition with IL-2 binding to IL-2Rβ” value with IL-2Rβ is given as “do not bind competitively”. Further, the “competition with the group of IL-2Rγc ligands (SEQ ID NO: 935-940) for the specific binding site on the hu-IL-2Rγc subunit” value with hu-IL-2Rγc subunit [1] is given as “does not compete”. Take “S L L K C Y N A S T C A S V F (SLLKCYNASTCASVF) [SEQ ID NO: 723]”: the “competition with the group of IL-2Rγc ligands (SEQ ID NO: 935-940) for the specific binding site on the hu-IL-2Rγc subunit” value in the test with hu-IL-2Rγc subunit [1] is listed as “do not compete”. As to “N M C L V G D Y W P S C Q I (NMCLVGDYWPSCQI) [SEQ ID NO: 933]”, the “competition with IL-2 binding to IL-2Rβ” value with IL-2Rβ is “do not bind competitively”. As for “R S C Y Y K R P R L W C S E (RSCYYKRPRLWCSE) [SEQ ID NO: 931]”, in the test with hu-IL-2Rβ subunit, the “competition with the group of IL-2Rβ ligands for the specific binding site on the IL-2Rβ subunit” value is reported as “does not compete”.

Consider “R W G D V G D L L M P L (RWGDVGDLLMPL) [SEQ ID NO: 934]”, for which the “competition with IL-2 binding to IL-2Rβ” value with IL-2Rβ is on record as “do not bind competitively”. Turning to EGSTTTIECEEWAGVELCWL [SEQ ID NO 664], the values for the half-maximal inhibitory concentration (IC50) in the test with hu-IL-2Rγc subunit [2] and with hu-IL-2Rγc subunit [3] were below 10 µM and below 100 µM, respectively. KKIVVCQDWGGVELCWTEDD [SEQ ID NO 708]: the half-inhibitory concentration (IC50) (commonly the concentration that gives 50% inhibition) was below 10 µM with hu-IL-2Rγc subunit [2] and below 100 µM with hu-IL-2Rγc subunit [3].

Take MVNREVVVCEDWYGVELCWQ [SEQ ID NO 643]: the figures for the IC50 with hu-IL-2Rγc subunit [2] and with hu-IL-2Rγc subunit [3] were below 10 µM and below 100 µM, respectively. Regarding IECDTSYGVYICWQ [SEQ ID NO 637], the IC50 is below 10 µM with hu-IL-2Rγc subunit [2] and below 100 µM in the test with hu-IL-2Rγc subunit [3]. The matching figures for ILCEEWQGVELCWLEGGGS [SEQ ID NO 714]: below 10 µM and below 100 µM.

Consider FAHHGVVECQEWYGVELCWQ [SEQ ID NO 670], for which the IC50 with hu-IL-2Rγc subunit [2] is below 10 µM; in the test with hu-IL-2Rγc subunit [3] it was below 100 µM. As for RSDDEVVVCQEWEGVELCWQ [SEQ ID NO 666], the IC50 with hu-IL-2Rγc subunit [2] was below 10 µM; in the test with hu-IL-2Rγc subunit [3], below 100 µM. WSKKAEVVCEEWGGVEFCWI [SEQ ID NO 672]: the concentration for half-maximal inhibition (IC50) in the test with hu-IL-2Rγc subunit [2] was below 10 µM; in the test with hu-IL-2Rγc subunit [3] it was below 100 µM. With RLLNSVVECLDWEGVELCWQ [SEQ ID NO 659], the results for the 50% inhibitory concentration (IC50) in the test with hu-IL-2Rγc subunit [2] and with hu-IL-2Rγc subunit [3] were below 10 µM and below 100 µM, respectively.

In the case of AHSRQEVVCEEWYGVELCWI [SEQ ID NO 649], the results for the half-inhibitory concentration (IC50) with hu-IL-2Rγc subunit [2] and in the test with hu-IL-2Rγc subunit [3] were below 10 µM and below 100 µM, respectively. As to IECEEWAGVELCWL [SEQ ID NO 667], the IC50 was below 10 µM with hu-IL-2Rγc subunit [2] and below 100 µM with hu-IL-2Rγc subunit [3]. Regarding KLTVECQDWDGVELCWVGVE [SEQ ID NO 684], the IC50 is below 10 µM with hu-IL-2Rγc subunit [2] and below 100 µM with hu-IL-2Rγc subunit [3]. As for VVCQEWEGVELCWVEPPLLP [SEQ ID NO 686], the figures for the IC50 in the test with hu-IL-2Rγc subunit [2] and with hu-IL-2Rγc subunit [3] were below 10 µM and below 100 µM, respectively.

Consider KTTVACQDWGGVELCWVERV [SEQ ID NO 689], for which the IC50 was below 10 µM in the test with hu-IL-2Rγc subunit [2] and below 100 µM in the test with hu-IL-2Rγc subunit [3]. In the same order, the values of VVCEVFQGVELCWCENEEFT [SEQ ID NO 693] are below 10 µM and below 100 µM. IECEEWAGVELCWL [SEQ ID NO 716] returned an IC50 in the test with hu-IL-2Rγc subunit [2] below 10 µM. As for KVCEMWGGVLLCWN (modifications not checked) [SEQ ID NO 936], the IC50 is below 100 µM in test [4] and below 10 µM in test [5]. In the test with hu-IL-2Rγc subunit [3], GGVVCQDWEGVELCWQGPPA [SEQ ID NO 749] had a half-inhibitory concentration (IC50) below 100 µM. For YSRELYVQCEDWEGVELCWI [SEQ ID NO 651], the IC50 was below 10 µM with hu-IL-2Rγc subunit [2] and below 100 µM in the test with hu-IL-2Rγc subunit [3]. The matching figures for RSNQTVVECQDWEGVELCWQ [SEQ ID NO 673]: below 10 µM and below 100 µM. Consider LALRKEVVCQEYYGVELCWI [SEQ ID NO 641], for which the values for the IC50 with hu-IL-2Rγc subunit [2] and with hu-IL-2Rγc subunit [3] were below 10 µM and below 100 µM, respectively. For the molecule VVCQEWEGVELCWYAGECMQ [SEQ ID NO 674], the IC50 was below 10 µM with hu-IL-2Rγc subunit [2] and below 100 µM with hu-IL-2Rγc subunit [3]. With VTCQEYEGVELCWTVGCAYS [SEQ ID NO 698], the values for the 50% inhibitory concentration (IC50) in the test with hu-IL-2Rγc subunit [2] and with hu-IL-2Rγc subunit [3] were below 10 µM and below 100 µM, respectively. The matching figures for ILCQEFEGVELCWLEESLAE [SEQ ID NO 675]: below 10 µM and below 100 µM. On to VGIECEEWAGVELCWL [SEQ ID NO 715], for which the values for the IC50 with hu-IL-2Rγc subunit [2] and with hu-IL-2Rγc subunit [3] were below 10 µM and below 100 µM, respectively. RTGVECQDWHGVELCWPVWE [SEQ ID NO 711]: the values for the IC50 in the test with hu-IL-2Rγc subunit [2] and in the test with hu-IL-2Rγc subunit [3] were below 10 µM and below 100 µM, respectively.

For the molecule KPVVVCEEWQGVELCWLEIQ [SEQ ID NO 692], the IC50 with hu-IL-2Rγc subunit [2] was below 10 µM; in the test with hu-IL-2Rγc subunit [3], below 100 µM. As for GYGVVCEDFRGVELCWLERK [SEQ ID NO 712], the IC50 with hu-IL-2Rγc subunit [2] is below 10 µM; in the test with hu-IL-2Rγc subunit [3], below 100 µM.

Turning to VVCQEWEGVELCWC [SEQ ID NO 661], the half-maximal inhibitory concentration (IC50) was below 10 µM with hu-IL-2Rγc subunit [2] and below 100 µM with hu-IL-2Rγc subunit [3]. With DVECVDWGGVELCWH [SEQ ID NO 646], the IC50 in the test with hu-IL-2Rγc subunit [2] was below 10 µM; with hu-IL-2Rγc subunit [3], below 100 µM. With GGVVCQDWEGVELCWQPPA (not fully specified (bridges); cysteine pairing not given here) [SEQ ID NO 748], the 50% inhibitory concentration (IC50) in the test with hu-IL-2Rγc subunit [3] is below 100 µM.

Source of the values: US20240101959A1, “USE OF IL-2R-BETA-GAMMA AGONIST PEPTIDES IN CELL MANUFACTURING” (MEDIKINE, INC., priority 2022, published 2024).
